Drawing on patent publication US20250027060A1 (VIB VZW, published 2025), this text covers Kd, koff and kon for two molecules.

For assay [1], the target named is T1, LTKTG-EGFL (human LTK amino acids 63-420) (human, UniProt P29376 63-420).
T1 construct: Fc-His6 tag removed by caspase 3; also called LTK (in BLI, SEC-MALLS and ITC)
T1 sequence: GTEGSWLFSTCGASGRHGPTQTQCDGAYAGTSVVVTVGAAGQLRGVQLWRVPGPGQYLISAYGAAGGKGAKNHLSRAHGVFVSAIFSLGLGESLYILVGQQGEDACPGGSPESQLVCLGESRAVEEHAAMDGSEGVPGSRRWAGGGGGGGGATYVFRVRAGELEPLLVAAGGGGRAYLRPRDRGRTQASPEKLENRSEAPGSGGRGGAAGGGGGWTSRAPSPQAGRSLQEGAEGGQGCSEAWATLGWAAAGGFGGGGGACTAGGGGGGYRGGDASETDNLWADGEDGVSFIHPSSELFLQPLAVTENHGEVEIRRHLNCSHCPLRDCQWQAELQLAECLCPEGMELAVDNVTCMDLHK
The assay is described as follows: BLI, biotinylated ALKAL2 H100A on streptavidin biosensors, LTKTG-EGFL in solution, dilution series 6.4 µM-400 nM, biphasic fit, component 1. The source says: (§1) FIGS. 10A and 10B Representative response curves as measure by biolayer-interferometry (BLI) for the interaction of WT ALKAL1 and ALKAL1 mutants (containing charge-reversal mutations of residues involved in site 1) (FIG. 10A) and WT ALKAL2 and ALKAL2 mutants (FIG. 10B) with ALK_TG-EGFL and LTK_TG-EGFL. For WT ALKALs LTK curves were fitted with a 2:1 binding model (red) while for ALK a 1:1 model was used. Start and end concentrations of the 3-fold dilution series used for the WT measurements is shown as an inset while for all mutants a […] dilution series from 6.4 μM-400 nM was used.
(§2) All measurements of binding kinetics and dissociation constants were performed using an Octet Red 96 (Forté Bio) in assay buffer (20 mM HEPES pH 7.4, 150 mM NaCl, 0.02% (w/v) BSA, 0.002% (v/v) Tween 20) at 298K. ALKALs were immobilized to a level of 0.5 nm on streptavidin-coated biosensors (Forté Bio). To verify that no a specific binding was present during the assay, non-functionalized biosensors were used as a control by measuring in parallel all ligand concentrations as well as running buffer. For all mutants a two-fold dilution series from 6.4 μM-400 nM was employed. Data analysis was performed using the Data Analysis software 9.0.0.14 (Forté Bio) and binding curves were exported to Prism8 (Graphpad Software) for plotting of curves.
Background: Biolayer interferometry detects binding as a change in optical thickness at a sensor tip.

The target of assay [2] is T1, LTKTG-EGFL (human LTK amino acids …). The assay is described as follows: BLI, biotinylated ALKAL2 H100A on streptavidin biosensors, LTKTG-EGFL in solution, dilution series 6.4 µM-400 nM, biphasic fit, component 2.
From the text: as §1, §2

For assay [3] the target is unchanged. The assay is described as follows: BLI, biotinylated ALKAL2 H100A on streptavidin biosensors, LTKTG-EGFL in solution, dilution series 6.4 µM-400 nM, biphasic fit, component 2; the sheet prints x0^-1, taken as x10^-1.
From the text: as §1, §2

In assay [4] the target is T2, ALKTG-EGFL (human ALK amino acids 648-1025) (human, UniProt Q9UM73 648-1025, N-linked glycans; EndoH-trimmed (deglycosylated) for crystals and SEC-MALLS).
T2 construct: The C-terminal Fc-His6 tag was removed by caspase 3; also called ALK (in BLI, SEC-MALLS and ITC)
In words: BLI, biotinylated ALKAL2 R123E on streptavidin biosensors, ALKTG-EGFL in solution, dilution series 6.4 µM-400 nM.
From the text: as §1, §2

For assay [5], the target named is T1, LTKTG-EGFL (human LTK amino acids …). The assay is described as follows: BLI, biotinylated ALKAL2 R123E on streptavidin biosensors, LTKTG-EGFL in solution, dilution series 6.4 µM-400 nM.
From the text: as §1, §2

T2 sequence (Q9UM73 648-1025): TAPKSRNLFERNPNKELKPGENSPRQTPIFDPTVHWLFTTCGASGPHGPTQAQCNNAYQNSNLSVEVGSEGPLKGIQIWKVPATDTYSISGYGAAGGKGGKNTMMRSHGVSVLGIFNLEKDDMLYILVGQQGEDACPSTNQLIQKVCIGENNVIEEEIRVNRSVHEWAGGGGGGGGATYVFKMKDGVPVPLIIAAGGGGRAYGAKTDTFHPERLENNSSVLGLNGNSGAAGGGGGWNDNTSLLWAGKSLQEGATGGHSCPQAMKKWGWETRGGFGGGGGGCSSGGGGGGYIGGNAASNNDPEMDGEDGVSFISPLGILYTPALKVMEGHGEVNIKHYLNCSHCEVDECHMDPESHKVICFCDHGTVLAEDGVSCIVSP

B1: ALKAL2^H100A (residues 78-152) (ligand, human, UniProt Q6UX46 78-152, looked up)
chain: PSPEQRVEIVPRDLRMKDKFLKALTGPLYFSPKCSKHFHRLYHNTRDCTIPAYYKRCARLLTRLAVSPVCMEDKQ
notes: range 78-152; Avi-tagged and biotinylated in BLI; also called ALKAL2 site 2 mutant H100A
One may read the Kd as the concentration at which binding is half-saturated. Broadly, the koff is the rate constant with which the complex falls apart. A low value points to a long-lived complex. The kon is the rate constant with which the complex forms. Lower therefore signals slower complex formation. As to B1, the Kd in assay [1] is 280 nM; in assay [2] it was 3000 nM. The results for the dissociation rate constant (koff) in assay [1] and in assay [3] were 0.00082 s⁻¹ and 0.16 s⁻¹, respectively. In addition, the kon came out at 2900 M⁻¹ s⁻¹ in assay [1] and 53000 M⁻¹ s⁻¹ in assay [2].

B2: ALKAL2^R123E (residues 78-152) (ligand, human, UniProt Q6UX46 78-152, looked up)
chain: PSPEQRVEIVPRDLRMKDKFLKHLTGPLYFSPKCSKHFHRLYHNTEDCTIPAYYKRCARLLTRLAVSPVCMEDKQ
notes: range 78-152; also called ALKAL2 site 1 mutant R123E
For the molecule B2, the Kd in assay [4] was determined as 3500 nM; in assay [5], 2300 nM.
